# Test results as given in US20240043505A1.
# Molecular target: SARS-CoV-2 RBD E484K mutant (SARS-CoV-2), P0DTC2
# Conditions: remark: other sources report otherwise
binder,measurement,value
Nb21 (VHH) VHH: QVQLVESGGGLVQAGGSLRLSCAVSGLGAHRVGWFRRAPGKEREFVAAIGANGGNTNYLDSVKGRFTISRDNAKNTIYLQMNSLKPQDTAVYYCAARDIETAEYTYWGQGTQVTVSS,binding affinity fold change relative to RBD WT,< -1000 fold
